According to patent US20230240966:

T1: Suc-AAPR-pNA
T1 chain: AAPR

T2: Suc-AAPD-pNA
T2 chain: AAPD

T3: Suc-AAPF-pNA
T3 chain: AAPF

T4: Suc-AAPA-pNA
T4 chain: AAPA

T5: Suc-AAPI-pNA
T5 chain: AAPI

T6: Suc-AAPL-pNA
T6 chain: AAPL

T7: Suc-AAPV-pNA
T7 chain: AAPV

T8: Suc-AAPE-pNA
T8 chain: AAPE

T9: Suc-AAPK-pNA
T9 chain: AAPK

T10: Suc-AAPM-pNA
T10 chain: AAPM


Tests used:
Suc-AAPR-pNA = biological target: T1, Suc-AAPR-pNA; conditions: scale: relative to the substrate with the highest activity
Suc-AAPD-pNA = biological target: T2, Suc-AAPD-pNA; conditions: scale: relative to the substrate with the highest activity
Suc-AAPF-pNA = biological target: T3, Suc-AAPF-pNA; conditions: scale: relative to the substrate with the highest activity
Suc-AAPA-pNA = biological target: T4, Suc-AAPA-pNA; conditions: scale: relative to the substrate with the highest activity
Suc-AAPI-pNA = biological target: T5, Suc-AAPI-pNA; conditions: scale: relative to the substrate with the highest activity
Suc-AAPL-pNA = biological target: T6, Suc-AAPL-pNA; conditions: scale: relative to the substrate with the highest activity
Suc-AAPV-pNA = biological target: T7, Suc-AAPV-pNA; conditions: scale: relative to the substrate with the highest activity
Suc-AAPE-pNA = biological target: T8, Suc-AAPE-pNA; conditions: for relative activity (initial increase in OD405): scale: relative to the substrate with the highest activity
Suc-AAPK-pNA = biological target: T9, Suc-AAPK-pNA; conditions: scale: relative to the substrate with the highest activity
Suc-AAPM-pNA = biological target: T10, Suc-AAPM-pNA; conditions: scale: relative to the substrate with the highest activity
[1] = biological target: type II (60-70 kDa) keratins of the ORS

| Protein | relative activity (initial increase in OD405) (Suc-AAPR-pNA) | relative activity (initial increase in OD405) (Suc-AAPD-pNA) | relative activity (initial increase in OD405) (Suc-AAPF-pNA) | relative activity (initial increase in OD405) (Suc-AAPA-pNA) | relative activity (initial increase in OD405) (Suc-AAPI-pNA) | relative activity (initial increase in OD405) (Suc-AAPL-pNA) | relative activity (initial increase in OD405) (Suc-AAPV-pNA) | Glutamyl endopeptidase ratio (GR) (Suc-AAPE-pNA) | relative activity (initial increase in OD405) (Suc-AAPE-pNA) | relative activity (initial increase in OD405) (Suc-AAPK-pNA) | relative activity (initial increase in OD405) (Suc-AAPM-pNA) | hydrolysis of ORS tissue protein, SDS-PAGE with Coomassie Blue [1] |
| --- | --- | --- | --- | --- | --- | --- | --- | --- | --- | --- | --- | --- |
| Thermostable alkaline protease BH0855 from Bacillus halodurans (protein) QTVPWGISFINTQQAHNRGIFGNGARVAVLDTGIASHPDLRIAGGASFISSEPSYHDNNGHGTHVAGTIAALNNSIGVLGVAPSADLYAVKVLDRNGSGSLASVAQGIEWAINNNMHIINMSLGSTSGSSTLELAVNRANNAGILLVGAAGNTGRQGVNYPARYSGVMAVAAVDQNGQRASFSTYGPEIEISAPGVNVNSTYTGNRYVSLSGTSMATPHVAGVAALVKSRYPSYTNNQIRQRINQTATYLGSPSLYGNGLVHAGRATQ | 0.0069 | 0.0053 | 0.59 | 0.088 | 0.0005 | 1 | 0.0008 | 0.008 | 0.0083 | 0.0038 | 0.85 |  |
| Subtilisin Carlsberg from Bacillus licheniformis (protein) AQTVPYGIPLIKADKVQAQGFKGANVKVAVLDTGIQASHPDLNVVGGASFVAGEAYNTDGNGHGTHVAGTVAALDNTTGVLGVAPSVSLYAVKVLNSSGSGSYSGIVSGIEWATTNGMDVINMSLGGASGSTAMKQAVDNAYARGVVVVAAAGNSGSSGNTNTIGYPAKYDSVIAVGAVDSNSNRASFSSVGAELEVMAPGAGVYSTYPTNTYATLNGTSMASPHVAGAAALILSKHPNLSASQVRNRLSSTATYLGSSFYYGKGLINVEAAAQ | 0.019 | 0.0008 | 1 | 0.0222 | 0.0005 | 0.807 | 0.0007 | 0.003 | 0.0033 | 0.0155 | 0.282 |  |
| Trypsin from Fusarium oxysporum (protein) IVGGTSASAGDFPFIVSISRNGGPWCGGSLLNANTVLTAAHCVSGYAQSGFQIRAGSLSRTSGGITSSLSSVRVHPSYSGNNNDLAILKLSTSIPSGGNIGYARLAASGSDPVAGSSATVAGWGATSEGGSSTPVNLLKVTVPIVSRATCRAQYGTSAITNQMFCAGVSSGGKDSCQGDSGGPIVDSSNTLIGAVSWGNGCARPNYSGVYASVGALRSFIDTYA | 1 | 0 | 0.0001 | 0 | 0 | 0 | 0 | < 0.001 | 0.0001 | 0.84 | 0 |  |
| Glutamyl endopeptidase blaSE from Bacillus licheniformis (protein) SVIGSDDRTRVTNTTAYPYRAIVHISSSIGSCTGWMIGPKTVATAGHCIYDTSSGSFAGTATVSPGRNGTSYPYGSVKSTRYFIPSGWRSGNTNYDYGAIELSEPIGNTVGYFGYSYTTSSLVGTTVTISGYPGDKTAGTQWQHSGPIAISETYKLQYAMDTYGGQSGSPVFEQSSSRTNCSGPCSLAVHTNGVYGGSSYNRGTRITKEVFDNLTNWKNSAQ | 0.0001 | 0.002 | 0.0032 | 0.0001 | 0 | 0.0027 | 0.0001 | 309 | 1 | 0.0001 | 0.0008 | 5 ppm HZ-2 fully degraded type I and type II during the experiment |
| Lysyl endopeptidase from Achromobacter lyticus (protein) GVSGSCNIDVVCPEGDGRRDIIRAVGAYSKSGTLACTGSLVNNTANDRKMYFLTAHHCGMGTASTAASIVVYWNYQNSTCRAPNTPASGANGDGSMSQTQSGSTVKATYATSDFTLLELNNAANPAFNLFWAGWDRRDQNYPGAIAIHHPNVAEKRISNSTSPTSFVAWGGGAGTTHLNVQWQPSGGVTEPGSSGSPIYSPEKRVLGQLHGGPSSCSATGTNRSDQYGRVFTSWTGGGAAASRLSDWLDPASTGAQFIDGLDSGGGTP | 0.0005 | 0.0006 | 0.0041 | 0.0005 | 0.0017 | 0.0019 | 0.0007 | < 0.001 | 0 | 1 | 0 |  |
| Serine protease bppB from Bacillus pumilus JA16 (protein) VVIGDDGRTKVTNTRVAPYNSIAYITFGGSSCTGTLIAPNKILTNGHCVYNTATRSYSAKGSVYPGMNDSTAVNGSANMTEFYVPSGYINTGASQYDFAVIKTDTNIGNTVGYRSIRQVTNLTGTTIKISGYPGDKMRSTGKVSQWEMSGPVTREDTNLAYYTIDTFSGNSGSAMLDQNQQIVGVHNAGYSNGTINGGPKATAAFVEFINYAKAQ | 0 | 0.0043 | 0 | 0 | 0 | 0.0005 | 0 | 234 | 1 | 0.0003 | 0 |  |
| Serine protease from Nocardiopsis sp NRRL 18262 (protein) ADIIGGLAYTMGGRCSVGFAATNAAGQPGFVTAGHCGRVGTQVTIGNGRGVFEQSVFPGNDAAFVRGTSNFTLTNLVSRYNTGGYATVAGHNQAPIGSSVCRSGSTTGWHCGTIQARGQSVSYPEGTVTNMTRTTVCAEPGDSGGSYISGTQAQGVTSGGSGNCRTGGTTFYQEVTPMVNSWGVRLRT | 0.172 | 0.0028 | 1 | 0.0001 | 0.0004 | 0.185 | 0.0121 | < 0.001 | 0.0004 | 0.0778 | 0.0003 |  |
| Glutamyl endopeptidase II sprE from Streptomyces griseus (protein) VLGGGAIYGGGSRCSAAFNVTKGGARYFVTAGHCTNISANWSASSGGSVVGVREGTSFPTNDYGIVRYTDGSSPAGTVDLYNGSTQDISSAANAVVGQAIKKSGSTTKVTSGTVTAVNVTVNYGDGPVYNMVRTTACSAGGDSGGAHFAGSVALGIHSGSSGCSGTAGSAIHQPVTEALSAYGVTVY | 0.0001 | 0.158 | 0 | 0 | 0 | 0 | 0 | 6 | 1 | 0 | 0.0001 |  |
| Subtilisin 309 variant from Bacillus clausii (protein) AQSVPWGIERVQAPAAHNRGLTGSGVKVAVLDTGISTHPDLRIRGGASFVPGEPSTQDGNGHGTHVAGTIAALDNSIGVLGVAPSEALYAVKVLGASGSGSVSSIAQGLEWAGNNGMHVANLSLGSPSPSATLEQAVNSATSRGVLVVAASGNSGAGSISYPARYANAMAVGATDQNNNRASFSQYGAGLDIVAPGVNILSTWPGSTYASLNGTSMATPHVAGAAALVKQKNPSWSNVQIRNHLKNTATSLGDTWEYGSGLVNAEAATR | 0.0002 | 0.0001 | 1 | 0.0566 | 0.0003 | 0.17 | 0.0001 | 0.003 | 0.0025 | 0.0011 | 0.861 |  |
